pKd: −log10 of the molar value.
Columns and labels:
[1] = biological target: T1, 4-1BB (CD137) extracellular portion (Mus musculus) (UniProt P20334); assay: filter; details: 2'-F pyrimidines
T1 sequence: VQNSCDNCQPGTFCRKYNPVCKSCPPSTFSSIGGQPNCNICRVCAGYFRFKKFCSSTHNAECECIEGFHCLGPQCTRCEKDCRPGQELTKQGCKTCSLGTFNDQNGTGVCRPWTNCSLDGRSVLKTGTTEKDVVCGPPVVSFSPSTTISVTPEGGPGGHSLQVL

[2] = biological target: 4-1BB (CD137) extracellular portion (Homo sapiens) (UniProt Q07011); assay: filter; details: 2'-F pyrimidines; alternating mouse/human selection pool
Chain of 4-1BB (CD137) extracellular portion (Homo sapiens) (Q07011 24-186): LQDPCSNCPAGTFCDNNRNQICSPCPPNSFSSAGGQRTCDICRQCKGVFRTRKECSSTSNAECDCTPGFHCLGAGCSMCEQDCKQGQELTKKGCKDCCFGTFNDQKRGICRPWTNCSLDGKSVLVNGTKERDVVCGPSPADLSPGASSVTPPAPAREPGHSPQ

GGGAGAGAGGAAGAGGGAUGGGNNNNNNNNNNNNNNNNNNNNNNNNNNNNNNNNNNNNNNNNCAUAACCCAGAGGUCGAUAGUACUGGAUCCCCCC [mouse 4-1BB selection round 12 pool]
pKd ([1]; round 12 pool): 7.30

GGGAGAGAGGAAGAGGGAUGGGNNNNNNNNNNNNNNNNNNNNNNNNNNNNNNNNNNNNNNNNCAUAACCCAGAGGUCGAUAGUACUGGAUCCCCCC [mouse/human 4-1BB alternating selection final pool]
pKd [2]: 7.64
pKd ([1]; alternating mouse/human selection pool): 6.70
